Data from US20160137732A1.

Molecular target: complement protein C1q (human) (UniProt P02745)
Assay: cell-based or functional assay

Sequence of UniProt P02745 (P02745 23-245 limits assumed, chain 1 of 3): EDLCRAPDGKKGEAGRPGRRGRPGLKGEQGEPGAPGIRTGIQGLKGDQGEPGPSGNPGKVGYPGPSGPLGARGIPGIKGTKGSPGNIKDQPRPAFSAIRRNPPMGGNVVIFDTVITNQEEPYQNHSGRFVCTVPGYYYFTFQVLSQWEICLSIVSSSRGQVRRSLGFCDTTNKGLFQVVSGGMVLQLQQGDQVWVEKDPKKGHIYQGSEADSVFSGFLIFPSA
Sequence of UniProt P02745 (P02746 28-253 limits assumed, chain 2 of 3, further chain): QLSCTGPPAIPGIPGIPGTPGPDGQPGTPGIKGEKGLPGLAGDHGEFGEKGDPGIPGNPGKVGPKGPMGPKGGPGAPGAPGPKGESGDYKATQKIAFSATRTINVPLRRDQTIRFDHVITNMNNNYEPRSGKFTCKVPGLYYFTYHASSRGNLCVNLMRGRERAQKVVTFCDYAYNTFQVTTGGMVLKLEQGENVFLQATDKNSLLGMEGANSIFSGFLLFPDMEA
Sequence of UniProt P02745 (P02747 29-245 limits assumed, chain 3 of 3, further chain): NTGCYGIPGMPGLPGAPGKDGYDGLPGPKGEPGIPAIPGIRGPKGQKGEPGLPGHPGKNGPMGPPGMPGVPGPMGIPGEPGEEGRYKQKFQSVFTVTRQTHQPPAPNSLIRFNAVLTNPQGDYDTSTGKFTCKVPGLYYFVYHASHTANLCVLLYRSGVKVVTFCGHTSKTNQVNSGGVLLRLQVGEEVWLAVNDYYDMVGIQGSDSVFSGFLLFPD

| Substance | average fold-increase in the EC50 value compared with wild-type Hu1D10-IgG1 antibody (CDC) [fold] | average fold-increase in the maximum percent lysis (CDC) [fold] | fold-increase in the EC50 value compared with wild-type Hu1D10-IgG1 antibody (CDC) [fold] | fold-increase in the maximum percent lysis (CDC) [fold] |
| --- | --- | --- | --- | --- |
| Hu1D10-IgG1 double mutant S324N/I332F (antibody) | 13 to 16 | 1.3 to 1.4 |  |  |
| Hu1D10-IgG1 double mutant S324N/I332M (antibody) | 13 to 16 | 1.3 to 1.4 |  |  |
| Hu1D10-IgG1 double mutant S324W/I332F (antibody) | 13 to 16 | 1.3 to 1.4 |  |  |
| Hu1D10-IgG1 double mutant S324W/I332M (antibody) | 13 to 16 | 1.3 to 1.4 |  |  |
| Hu1D10-IgG1 single mutant I332F (antibody) |  |  | 2.5 | 1.2 to 1.4 |
| Hu1D10-IgG1 single mutant I332G (antibody) |  |  | 1.5 | 1.2 to 1.4 |
| Hu1D10-IgG1 single mutant I332M (antibody) |  |  | 2.5 | 1.2 to 1.4 |
| Hu1D10-IgG1 single mutant S324M (antibody) |  |  | 2 |  |
| Hu1D10-IgG1 single mutant S324Y (antibody) |  |  | 2 |  |
